Test results published in the supplement of paper PMC9732359.
± gives the uncertainty stated by the source.

Experiment: protein stability index of a GFP-peptide fusion (yeast GPS) (PSI 1-4); higher = more stable; sorted into four equal gates, so the index is relative within each strain
How it was run: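 Mid-log yeast cultures in leucine-free medium, carrying a pooled plasmid library, were sorted into four equal gates by their GFP/Cherry fluorescence ratio. Each plasmid expressed Cherry along with GFP fused upstream of a tiled 17-residue yeast protein peptide. Plasmids recovered from each gate were PCR-amplified and Illumina-sequenced, with reads assigned to strains by barcodes. The protein stability index was obtained by summing each gate's read frequency weighted by its gate number.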

Row | Sequence | protein stability index (doa10∆) | protein stability index (pdr5∆) | protein stability index (san1∆) | protein stability index (ubr1∆)
1 | SVGNLEVVKSLYDRPLK [NAS6] | 3.29 ± 0.19 | 2.89 ± 0.2 | 3.12 ± 0.075 | 3.34 ± 0.1
2 | QSRLMSTSYHLNSTLES [MED6] | 2.79 ± 0.072 | 2.79 ± 0.054 | 1.97 ± 0.063 | 2.37 ± 0.062
3 | GKGNTFEKVGSHLYKAR [RPN14] | 2.93 ± 0.25 | 2.81 ± 0.14 |  | 3.27 ± 0.13
4 | ECPVGEFLINEGTPINN [RPN14] | 2.99 ± 0.1 | 2.39 ± 0.069 | 2.89 ± 0.11 | 2.31 ± 0.085
5 | EYLTLNDFNDLNIDWST [MED2] | 2.83 ± 0.06 | 2.92 ± 0.062 | 2.6 ± 0.053 | 2.51 ± 0.043
6 | RHKNKHIQGFPTLGERL [DSN1] | 3.41 ± 0.091 | 3.64 ± 0.13 | 3.37 ± 0.06 | 3.44 ± 0.076
7 | CGLMTVIAKLNHNQFEC [RPB2] | 2.33 ± 0.09 | 2.35 ± 0.078 | 1.5 ± 0.12 | 1.7 ± 0.15
8 | NERELNVFARLSRLLSL [RPC82] | 2.02 ± 0.16 | 2.07 ± 0.11 | 2.79 ± 0.13 | 2.5 ± 0.06
9 | ALEDEERDEILTLTDSQ [BRR2] | 3.09 ± 0.13 | 3.25 ± 0.14 | 3.23 ± 0.088 | 3.12 ± 0.16
10 | GDLKLQVLLDEEYKQLV [RPO21] | 2.48 ± 0.12 | 2.94 ± 0.082 | 2.73 ± 0.11 | 3.2 ± 0.062
11 | QKLFVQVSNFAPQVYII [GAL11] | 2.62 ± 0.077 | 2.45 ± 0.061 | 2.86 ± 0.065 | 2.32 ± 0.049
12 | HARGGGAISAVAATNTP [SRP54] | 1.69 ± 0.12 | 2.35 ± 0.12 | 3.07 ± 0.12 | 2.3 ± 0.12
13 | NYLLKRNEDARRNLRYG [RPO31] | 3.35 ± 0.1 | 3.41 ± 0.094 | 3.51 ± 0.12 | 3.56 ± 0.056
14 | SATVKTSDLLGSHLSET [ECM29] | 2.67 ± 0.071 | 2.98 ± 0.085 | 2.94 ± 0.095 | 2.86 ± 0.076
15 | LTHRLGGDTCSSDGALC [POP1] | 2.96 ± 0.11 | 3.39 ± 0.084 | 3.17 ± 0.12 | 3.19 ± 0.054
16 | KSDTVTSASQPFKFGKT [YOR098C/NUP1] | 2.34 ± 0.081 | 1.71 ± 0.069 | 1.62 ± 0.12 | 1.97 ± 0.052
17 | TEAGFFAIRDDRDHINP [RPT4] | 2.49 ± 0.08 | 2.99 ± 0.072 | 3.12 ± 0.058 | 3.27 ± 0.045
18 | SNNELVRTNTLTKAAIV [RPS8A] | 2.842 ± 0.022 | 3.046 ± 0.022 | 2.724 ± 0.022 | 3.021 ± 0.018
19 | KEDADLKRMEILKSPHL [SIR4] | 2.88 ± 0.053 | 2.95 ± 0.077 | 2.99 ± 0.053 | 3.08 ± 0.057
20 | VRDTSPHGISVFLSNLV [BRR2] | 1.35 ± 0.1 | 1.54 ± 0.077 | 2.55 ± 0.078 | 2.34 ± 0.049
21 | FDFLMNMPNCDYLTLNK [RPN2] | 2.76 ± 0.054 | 2.31 ± 0.068 | 2.07 ± 0.076 | 1.74 ± 0.039
22 | INCNKETIENVKLQMIK [ECM29] | 3.21 ± 0.097 | 3.03 ± 0.16 | 2.93 ± 0.089 | 3.4 ± 0.13
23 | IQLLDENVGTRLLPINV [MED11] | 3.09 ± 0.16 | 2.86 ± 0.1 | 3.14 ± 0.066 | 3.16 ± 0.063
24 | EQKLVDLLKFENISLAE [BRR2] | 2.65 ± 0.065 | 2.93 ± 0.066 | 2.71 ± 0.049 | 2.58 ± 0.055
25 | PGNNIPYMNHKNTSSMD [GAL11] |  | 2.11 ± 0.14 | 2.16 ± 0.21 | 
26 | LTLRKAKAPSGLDQSRI [FAS1] | 3.05 ± 0.12 | 2.98 ± 0.11 | 3.17 ± 0.12 | 3.13 ± 0.081
27 | LKRSTELLETVSLTKRK [YIL149C/MLP2] | 1.66 ± 0.056 | 2.06 ± 0.045 | 2.09 ± 0.079 | 1.6 ± 0.027

Row | Sequence | protein stability index (doa10∆) | protein stability index (pdr5∆) | protein stability index (san1∆) | protein stability index (ubr1∆)
28 | IQQLISQFLKRVHANLQ [SNF11] | 1.63 ± 0.051 | 1.61 ± 0.044 | 1.52 ± 0.068 | 1.54 ± 0.038
29 | NELMRWPIVQKTYEPVL [RPN5] | 2.25 ± 0.06 | 2.39 ± 0.057 | 2.24 ± 0.075 | 1.83 ± 0.037
30 | DLEGRANIFRIHSKSMS [RPT1] |  |  | 3.21 ± 0.25 | 
31 | NGSSDASSLRFGNSLSN [YDL088C/ASM4] | 2.77 ± 0.071 | 2.76 ± 0.075 | 2.69 ± 0.05 | 2.56 ± 0.1
32 | ETFQDTFSGALGKQSSS [FAS2] | 3.23 ± 0.063 | 3.32 ± 0.066 | 3.15 ± 0.039 | 3.11 ± 0.055
33 | QTGIFVYQNNITPSAMK [RPB5] | 3.06 ± 0.091 | 2.55 ± 0.16 | 3.11 ± 0.075 | 3.36 ± 0.12
34 | QNNSTGSSSIIYYDSYI [SSN2] | 2.63 ± 0.095 | 2.8 ± 0.1 | 2.79 ± 0.056 | 2.81 ± 0.081
35 | QTLLANSDHAKFTIEPG [SNF2] | 2.35 ± 0.059 | 2.33 ± 0.065 | 2.41 ± 0.1 | 2.37 ± 0.063
36 | TLSPNVTDSSLLKLLTR [GRR1] | 2.89 ± 0.062 | 2.99 ± 0.07 | 2.83 ± 0.043 | 2.82 ± 0.042
37 | INELFKKYTQNNPLLLI [RPN8] | 1.85 ± 0.071 | 1.48 ± 0.05 | 1.37 ± 0.14 | 1.11 ± 0.049
38 | DFNEIVQYLSGAHGNSD [POP3] | 1.24 ± 0.096 | 1.22 ± 0.14 | 1.18 ± 0.21 | 1.28 ± 0.11
39 | ANLMLVMLRLLLVVIFK [SRB4] | 1.49 ± 0.045 | 1.51 ± 0.047 | 1.24 ± 0.088 | 1.46 ± 0.034
40 | DNNTASNMLGSNEDVMM [RPB3] | 2.04 ± 0.25 | 2.43 ± 0.17 | 2.31 ± 0.25 | 
41 | GAINVANCQRQLTEFWT [NNF1] | 3.2 ± 0.16 | 2.76 ± 0.13 | 2.71 ± 0.21 | 
42 | FVDDMLRDYRFEDATRE [SNF5] | 2.92 ± 0.096 | 3 ± 0.095 | 3.19 ± 0.082 | 3.35 ± 0.046
43 | NILPFLWGPHGLNSDAE [ECM29] | 2.86 ± 0.21 | 2.71 ± 0.16 | 2.54 ± 0.14 | 2.42 ± 0.2
44 | SNTMYSVRLFSFLDPLN [YJL039C/NUP192] | 1.41 ± 0.048 | 1.48 ± 0.061 | 1.83 ± 0.063 | 1.69 ± 0.059
45 | APAVELHGNAKKAAEEA [FAS2] | 3.42 ± 0.12 | 3.11 ± 0.14 | 3.1 ± 0.12 | 3.3 ± 0.15
46 | DYTLQDIICEDSTLILE [RPB2] | 2.83 ± 0.082 | 2.64 ± 0.078 | 2.11 ± 0.11 | 2.15 ± 0.072
47 | SGWGAVVYIIKKDEVVK [PUP3] | 3.25 ± 0.088 | 2.96 ± 0.072 | 3.33 ± 0.052 | 3.27 ± 0.057
48 | STSENKISEGSAKPTFS [YOR098C/NUP1] | 3.63 ± 0.18 | 2.52 ± 0.26 | 2.8 ± 0.14 | 3.17 ± 0.097
49 | KKSRSNLSQENDNEGKH [YAR002W/NUP60] | 2.77 ± 0.058 | 3.12 ± 0.052 | 2.91 ± 0.049 | 3.11 ± 0.044
50 | QLIGSNIELHSLYTSRE [PUP1] | 3.33 ± 0.25 | 3.33 ± 0.2 | 3.34 ± 0.26 | 2.91 ± 0.2
51 | TLSNAERAKNVNGLLQV [GAL11] | 3.22 ± 0.14 | 3.23 ± 0.1 | 3.08 ± 0.26 | 3 ± 0.098
52 | VKEYQLRDRNFSATGNF [RPL11A] | 3.29 ± 0.097 | 3.27 ± 0.1 | 2.85 ± 0.28 | 3.22 ± 0.089
53 | KELQYDNEQNLESDFVT [PRE2] | 2.93 ± 0.092 | 3.16 ± 0.075 | 2.91 ± 0.075 | 3.02 ± 0.055
54 | IVNNDLPTTVVSNPGDN [MED2] | 2.84 ± 0.051 | 2.96 ± 0.052 | 2.82 ± 0.052 | 3.02 ± 0.033
